Measurements as given in patent US20230235048A1 (PROTHENA BIOSCIENCES, published 2023).

Assays:
[1] = biological target: T1, extracellular domain (ECD) of recombinant human Sortilin with a C-terminal HIS tag (ECD-huSortilin-HIS) (human, UniProt Q99523 78-755); assay: SPR (Biacore T200), mAb captured by anti-mouse antibody on CM5, Sortilin 0.1-300 nM as analyte, global 1:1 fit
T1 construct: Bought (R&D Systems); also called human sortilin-ECD; not shown: C-terminal HIS tag
T1 sequence: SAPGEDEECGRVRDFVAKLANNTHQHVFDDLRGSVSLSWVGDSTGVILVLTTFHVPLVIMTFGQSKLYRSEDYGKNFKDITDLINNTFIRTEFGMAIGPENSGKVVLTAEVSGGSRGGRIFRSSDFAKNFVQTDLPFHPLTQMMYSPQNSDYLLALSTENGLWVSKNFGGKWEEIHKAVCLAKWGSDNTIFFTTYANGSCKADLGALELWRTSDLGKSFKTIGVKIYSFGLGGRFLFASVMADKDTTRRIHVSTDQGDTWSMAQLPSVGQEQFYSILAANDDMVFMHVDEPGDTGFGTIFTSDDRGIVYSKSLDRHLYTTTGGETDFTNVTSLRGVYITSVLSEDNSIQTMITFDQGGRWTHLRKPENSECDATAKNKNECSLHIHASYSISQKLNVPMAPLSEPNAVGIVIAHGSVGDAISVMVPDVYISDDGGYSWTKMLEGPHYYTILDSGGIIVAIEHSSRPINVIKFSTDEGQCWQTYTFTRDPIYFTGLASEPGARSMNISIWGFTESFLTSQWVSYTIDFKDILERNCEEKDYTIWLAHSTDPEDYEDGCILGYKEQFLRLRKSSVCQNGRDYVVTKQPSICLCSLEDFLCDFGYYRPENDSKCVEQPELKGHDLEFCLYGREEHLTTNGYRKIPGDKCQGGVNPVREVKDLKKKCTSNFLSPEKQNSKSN
Description: Analysis was performed using a Biacore T200 to compare the binding affinity of murine anti-huSortilin antibodies to recombinant human Sortilin. Anti-mouse antibody was immobilized on sensor chip CM5 (GE Healthcare Life Sciences) via amine coupling, and mouse antibodies (ligand) were captured to a level to ensure a maximum binding of analyte of 50 RU (approximately 100RU of ligand binding). Various concentrations of Sortilin (ranging from 0.1 nM to 300 nM) were passed over the captured ligand at […] in running buffer (HBS+0.05% P-20, 1 mg/mL BSA) for 180-300s association time and 300-900s dissociation time. Regeneration of the chip surface was accomplished by 2 short injections of 10 mM Glycine-HCl at pH 1.7. Data was blank subtracted to both a sensor not containing ligand and 0 nM analyte concentration. Analysis was performed using a global 1:1 fit with Biacore Insight Evaluation software (v2.0) with bulk refractive index set to zero RU.

[2] = biological target: T1, extracellular domain (ECD) of …; assay: ELISA, Ab binding to hSortilin-ECD
Description: Purified anti-huSortilin mAb binding to huSortilin was characterized by ELISA (ELISA protocol as in Example 1) using a 12 point titration of mAb concentration. mAbs were diluted 2-fold from a starting concentration of 67 nM and then added to ECD-huSortilin-HIS coated plates. Data was analyzed and EC₅₀ (nM) was calculated using graphed Prism. Commercially available goat anti-huSortilin (R&D Biosystems) was used as a positive control. Results are depicted in FIG. 8.

[3] = biological target: T2, human sortilin on the cell surface (recombinant huSortilin on HEK 293 cells; endogenous on U251MG cells) (human, UniProt Q99523 78-831); assay: cell-based blocking titration (flow cytometry), huSortilin HEK293 cells; blocked ligand 30 nM huPGRN-Biotin
T2 construct: whole, on cells; also called huSortilin expressing HEK293 cells; cell surface huSortilin
T2 sequence (looked up): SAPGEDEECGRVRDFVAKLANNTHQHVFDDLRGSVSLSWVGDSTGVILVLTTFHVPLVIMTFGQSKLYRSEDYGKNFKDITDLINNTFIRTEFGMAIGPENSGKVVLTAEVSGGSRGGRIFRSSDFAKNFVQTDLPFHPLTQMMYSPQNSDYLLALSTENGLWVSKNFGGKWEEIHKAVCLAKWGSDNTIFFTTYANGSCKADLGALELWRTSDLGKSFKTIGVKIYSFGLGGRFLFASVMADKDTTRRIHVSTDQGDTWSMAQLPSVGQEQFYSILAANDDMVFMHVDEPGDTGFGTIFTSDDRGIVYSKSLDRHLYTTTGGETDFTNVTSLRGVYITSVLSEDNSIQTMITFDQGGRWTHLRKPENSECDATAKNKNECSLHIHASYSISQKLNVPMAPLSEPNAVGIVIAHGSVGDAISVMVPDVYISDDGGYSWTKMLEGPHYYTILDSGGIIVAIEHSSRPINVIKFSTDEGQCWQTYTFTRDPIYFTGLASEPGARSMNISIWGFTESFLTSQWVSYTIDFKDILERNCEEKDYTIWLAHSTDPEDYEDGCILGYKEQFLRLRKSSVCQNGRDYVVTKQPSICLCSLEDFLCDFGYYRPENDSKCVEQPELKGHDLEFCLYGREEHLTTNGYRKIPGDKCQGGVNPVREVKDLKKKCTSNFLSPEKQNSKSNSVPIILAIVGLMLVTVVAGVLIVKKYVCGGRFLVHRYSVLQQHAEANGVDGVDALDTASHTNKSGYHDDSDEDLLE
Description: Cells were cultured using standard methods. […] Cells were then washed twice in PBS+2% FBS and incubated for 30 minutes on ice with 50 uL per well 1:200 Steptavidin-APC (BD biosciences) in PBS+2% FBS. Cells were then washed as above and resuspended in 100 uL PBS+2% FBS. Data was acquired using the BD LSR II and analyzed using FlowJo software version 10.6 and Microsoft excel.
The cell-based blocking assay was repeated with the top 12 blocking mAbs using a dose titration from 67 nM to 0.4 nM. Blocking assay was carried out as above. Data was analyzed using FlowJo software version 10.6. and GraphPad Prism software.

[4] = biological target: T1, extracellular domain (ECD) of …; assay: blocking ELISA, coated ECD-huSortilin-HIS; blocked ligand huPGRN-Biotin
[5] = biological target: T3, sortilin array peptides with the consensus motif RTEFGMAIGP (human, not fully specified; array peptides cyclized via a thioether linkage between a C-terminal cysteine and a modified N-terminus); assay: PEPperMAP conformational (cyclized) peptide microarray, mAb 10-100 ug/mL
T3 construct: Consensus motif of overlapping 7, 10 and 13 amino acid conformational microarray peptides
T3 peptide: RTEFGMAIGP

[6] = biological target: T1, extracellular domain (ECD) of …; assay: blocking ELISA, coated ECD-huSortilin-HIS, purified mAb; blocked ligand huPGRN-Biotin

B1: mouse monoclonal antibody 5M13 (antibody, mouse IgG1, V domains shown)
VH: DVQLQESGPGLVKPSQSLSLTCTVTGYSITSDYAWNWIRQFPGNKLEWMGYISSSGSTSYNPSLKSRISVTRDTSKNQFFLQLNFVTAEDTATYYCAFVTTTMDYWGQGTSVTVSS
VL: DVVMTQTPLSLPVSLGDQASISCRSSQSLVHSNGNTYLHWYLQKPGQSPKLLIYTVSNRFSGVPDRFSGSGSGTDFTLKISRVEAEDLGVYFCSQSTHVPFTFGSGTKLEIK
notes: mouse IgG1, kappa
B1 was tested. Which Kd [1] did it give?
Its Kd is 2.29 nM.

What about the koff [1] of the same binder?
The koff was 0.000411 s⁻¹.

And the kon [1]?
Its kon is 179000 M⁻¹ s⁻¹.

What about the EC50 [2] of the same binder?
Its EC50 is 2.7 nM.

And the “% Max blocking at 11nM mAb” value [3]?
The value was 0%.

What about the “% Blocking at 7.4nM mAb” value [4] of the same binder?
Its value is 27%.

B2: mouse monoclonal antibody 11M14 (antibody, mouse IgG1, V domains shown)
VH: EVQLVESGGDLVKPGGSLKLSCAASGFTFNIYGMSWVRQTPDKRLEWVATISSGGIYTYYPDILKGRFTISRDNAKNTLYLQMSSLKSEDTAMYYCARHPGGAMDYWGQGTSVTVSS
VL: DIQMTQSPASLSVSVGETVTITCRVSENIYSNLAWYQQKQGKSPHLLVYAATNLADGVPSRFSGSGSGTQYSLKINSLQSEDFGSYYCQHFWGTPPWTFGGGTKLEIK
notes: mouse IgG1, kappa; also called ms11M14
What does the source list for B2?
Kd [1]: 6.24 nM; EC50 [2]: 0.8 nM; % Max blocking at 11nM mAb [3]: 48%; % Blocking at 7.4nM mAb [4]: 75%

B3: mouse monoclonal antibody 2F18 (antibody, mouse IgG1, V domains shown)
VH: EVQLVESGGDLVKPGGSLKLSCAASGFTFNIYGMSWVRQTPDKRLEWVATISTGGIYTYYPDSVKGRFTISRDNAKNTLYLQMSSLKSEDTAMYYCARHPVGALDYWGQGTSVTVSS
VL: DIQVTQSPASLSVSVGETVTITCRASENIYSNLAWYQQKQGKSPHLLVYTATTLADGVPSRFSGSGSGTQYSLKINSLQSEDFGSYYCQHFWGTPPWTFGGGTKLEIK
notes: mouse IgG1, kappa
Which results are given for B3?
Kd [1]: 2.81 nM; EC50 [2]: 0.7 nM; % Max blocking at 11nM mAb [3]: 41%; % Blocking at 7.4nM mAb [4]: 76%

B4: mouse monoclonal antibody 8H24 (antibody, mouse IgG2c, V domains shown)
VH: QAYLQQSGTELVRPGASVKMSCKASGYTFTSYSMHWVKQTPRQGLEWIGAIYPGNDATSYNQKFKGKATLTVDKSSSTAYMQLSSLTSEDSAVYFCAREGYYGSSFEAWFASWGQGTLVTVSA
VL: DVLMTQTPLSLPVSLGDQASISCRSSQSIVHSNGNTYLEWYLQKPGQSPKLLIYKVSNRFSGVPDRFSGSGSGTDFTLKISRVEAEDLGVYYCFQGSHVLPTFGGGTKLEIK
notes: mouse IgG2c, kappa; also called mu8H24; m8H24
B4 was tested. Which Kd [1] did it give?
Its Kd is 4.56 nM.

What about the EC50 [2] of the same binder?
The EC50 was 0.4 nM.

What about the “% Max blocking at 11nM mAb” value [3] of the same binder?
The value was 66%.

And the “% Blocking at 7.4nM mAb” value [4]?
Its value is 89%.

Does B4 bind [5]?
Result: binds

B5: mouse monoclonal antibody 9N18 (antibody, mouse IgG2b, V domains shown)
VH: EIQLQQSGPELVKPGASVKISCKASGYSFTGYYMNWVKQSPEKSLEWIGEINPITGGTTYNQNFKAKATLTVDKSSSTAYLQLRSLTSEDSAVYYCASDYFGSNSWFAYWGQGTLVTVSA
VL: DVLMTQTPLSLPVSLGDQASISCRSSQSIVHRNGNTYLEWYLQKPGQSPKLLIYKVSNRFSGVPDRFSGSGSGTDFTLRISRVEAEDLGVYYCFQGSHVPYTFGGGTKLEIK
notes: mouse IgG2b, kappa
B5 was tested. Which EC50 [2] did it give?
Its EC50 is 0.8 nM.

What about the “% Max blocking at 11nM mAb” value [3] of the same binder?
Its value is 45%.

And the “% Blocking at 7.4nM mAb” value [4]?
Its value is 65%.

B6: mouse monoclonal antibody 2P22 (antibody, mouse IgG2b, V domains shown)
VH: EVQLVESGGDLVKPGGSLKLSCAASGFTFSIYGMSWVRQTPDKKLEWVAAISSGGIYTYYPDSVKGRFTISRDNAKNTLYLQMSSLKSADTAMYYCTRNDYDWFAYWGQGTLVTVSA
VL: DIQMTQSPSSLSASLGERVSLTCRASQDIGSSLNWLQQEPDGTIKRLIYATSSLDSGVPKRFSGSRSGSDYSLTISSLESEDFVDYYCLQYASSPYTFGGGTKLEIK
notes: mouse IgG2b, kappa
Which results are given for B6?
Kd [1]: 2.21 nM; EC50 [2]: 0.8 nM; % Max blocking at 11nM mAb [3]: 40%; % Blocking at 7.4nM mAb [4]: 67%

B7: mouse monoclonal antibody 2C14 (antibody, mouse IgG1, V domains shown)
VH: EVQLVESGGDLVKPGGSLKLSCAASGFTFNTHGMSWVRQTPDKSLEWVATISTGGFYTSYPDSVKGRFTISRDNAKNTLFLQMSSLKSEDTAMYYCAKSSSHWYFDVWGTGTTVTVSS
VL: DILMTQSPSSMSVSLGDTVSITCHASQGISSNIGWLQQKPGKSFKGLIYHGTNLEDGVPSRFSGSGSGADYSLTISSLEYEDFADYYCVQYAHFPYTFGGGTKLEIK
notes: mouse IgG1, kappa
How did the Kd [1] turn out when B7 was run?
Its Kd is 11.8 nM.

What about the EC50 [2] of the same binder?
The EC50 was 1 nM.

And the “% Max blocking at 11nM mAb” value [3]?
The value was 64%.

And the “% Blocking at 7.4nM mAb” value [4]?
Its value is 79%.

B8: mouse monoclonal antibody 5E20 (antibody, mouse IgG1, V domains shown)
VH: EVQLVESGGDLVKPGGSLKLSCAAPGFTFSTYGMSWVRQTPDKRLEWVAIISSGGSYTYYSDTVKGRFTISRDNAKNTLYLQMSSLKSEDTAMYYCSRSSSHWYFDVWGTGTTVTVSS
VL: DILMTQSPSSMSVSLGDTVSITCHASQGISSNIGWLQQKPGKSFKGLIYHGTNLKDGVPSRFSGSGSGADFSLTISSLESEDFADYFCVQYAQFPYTFGGGTKLEKR
notes: mouse IgG1, kappa; also called ms5E20; ms5E20new
With B8 as the binder, how does the Kd [1] read?
Its Kd is 1.59 nM.

What about the EC50 [2] of the same binder?
Its EC50 is 1.1 nM.

What about the “% Max blocking at 11nM mAb” value [3] of the same binder?
Its value is 54%.

What about the “% Blocking at 7.4nM mAb” value [4] of the same binder?
Its value is 76%.

B9: mouse monoclonal antibody 6B15 (antibody, mouse IgG1, V domains shown)
VH: EVQLVESGGDLVKPGGSLKLSCAAPGFTFSTYGMSWVRQTPDKRLEWVAIISSGGSYTYYSDTVKGRFTISRDNAKNTLNLQMSSLKSEDTAMYFCSRSSSHWYFDVWGTGTTVTVSS
VL: DILMTQFPSSMSVSLGDTVSITCHASQGISSNIGWLQQKPGKSFKGLIYHGTNLKDGVPSRFSGSGSGTDFSLTISSLESEDFADYYCVQYAQFPYTFGGGTKLEKR
notes: mouse IgG1, kappa
Which Kd [1] does the source give for B9 here?
Its Kd is 1.02 nM.

What about the EC50 [2] of the same binder?
The EC50 was 3.8 nM.

What about the “% Max blocking at 11nM mAb” value [3] of the same binder?
Its value is 33%.

And the “% Blocking at 7.4nM mAb” value [4]?
The value was 51%.

And the “IC50 (read off the curve)” value [6]?
Its value is roughly 5 nM.
